Square brackets hold non-standard residues; d marks the D form. Ends that are not written are not given here. * marks the point of attachment. dimethylgly‑t‑butylgly‑cys‑gly = CN(C)CC(=O)N[C@H](C(=O)N[C@@H](CS)C(=O)NCC(=O)*)C(C)(C)C; Cyclopropanecarbonyl = O=C(C1CC1)*; Nle = CCCC[C@H](N)C(=O)O; For = O=C*
T1: N-formyl-methionyl-leucyl-phenylalanine (fMLF) receptor on elicited rat peritoneal neutrophils (rat, UniProt D4A7Q2 1-355)
T1 sequence: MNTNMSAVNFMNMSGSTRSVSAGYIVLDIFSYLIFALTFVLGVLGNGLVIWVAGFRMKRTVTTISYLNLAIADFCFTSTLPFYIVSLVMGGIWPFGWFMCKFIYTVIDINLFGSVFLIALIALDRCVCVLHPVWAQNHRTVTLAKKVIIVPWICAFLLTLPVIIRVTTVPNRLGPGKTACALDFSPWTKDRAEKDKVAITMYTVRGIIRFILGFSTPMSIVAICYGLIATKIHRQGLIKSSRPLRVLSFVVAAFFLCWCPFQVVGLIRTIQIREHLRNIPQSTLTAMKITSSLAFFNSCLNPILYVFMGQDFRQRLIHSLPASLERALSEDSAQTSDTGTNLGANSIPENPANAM

T2: N-formyl-methionyl-leucyl-phenylalanine (fMLF) receptor on human neutrophils (human, UniProt P21462 1-350)
T2 construct: whole, on cells; Native receptor on whole neutrophils from healthy volunteers; also called Human FPR; formyl peptide receptor
T2 sequence (looked up): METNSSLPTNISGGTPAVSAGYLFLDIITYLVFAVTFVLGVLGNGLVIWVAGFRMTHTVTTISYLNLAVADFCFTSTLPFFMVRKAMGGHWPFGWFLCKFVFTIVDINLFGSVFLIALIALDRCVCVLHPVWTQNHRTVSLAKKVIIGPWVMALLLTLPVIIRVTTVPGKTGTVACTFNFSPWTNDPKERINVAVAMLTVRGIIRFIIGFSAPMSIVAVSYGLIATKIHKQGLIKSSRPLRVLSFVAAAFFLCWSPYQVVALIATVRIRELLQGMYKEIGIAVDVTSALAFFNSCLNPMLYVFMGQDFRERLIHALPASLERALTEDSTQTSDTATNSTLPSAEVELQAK


Legend:
[1] = biological target: N-formyl-methionyl-leucyl-phenylalanine (fMLF) receptor on elicited rat peritoneal neutrophils (rat) (UniProt D4A7Q2); assay: saturation binding of 3H-fMLF to elicited rat peritoneal neutrophils, one-site fit (Prism)
[2] = biological target: N-formyl-methionyl-leucyl-phenylalanine (fMLF) receptor on human neutrophils (human) (UniProt P21462); assay: competition with 6 nM 3H-fMLF for binding to human neutrophils
[3] = biological target: N-formyl-methionyl-leucyl-phenylalanine (fMLF) receptor on elicited rat peritoneal neutrophils (rat) (UniProt D4A7Q2); assay: Scatchard transformation of the 3H-fMLF binding isotherm on elicited rat peritoneal neutrophils
[4] = biological target: N-formyl-methionyl-leucyl-phenylalanine (fMLF) receptor on elicited rat peritoneal neutrophils (rat) (UniProt D4A7Q2); assay: competition with 6 nM 3H-fMLF for binding to elicited rat peritoneal neutrophils, 4 C, filter harvest
[5] = biological target: N-formyl-methionyl-leucyl-phenylalanine (fMLF) receptor on elicited rat peritoneal neutrophils (rat) (UniProt D4A7Q2); assay: Scatchard analysis of 3H-fMLF saturation binding to elicited rat peritoneal neutrophils
[6] = biological target: N-formyl-methionyl-leucyl-phenylalanine (fMLF) receptor on elicited rat peritoneal neutrophils (rat) (UniProt D4A7Q2); assay: cell-based or functional assay
[7] = biological target: T1, N-formyl-methionyl-leucyl-phenylalanine …; assay: cell-based or functional assay
[8] = biological target: T1, N-formyl-methionyl-leucyl-phenylalanine …; assay: competition with 6 nM 3H-fMLF for binding to elicited rat peritoneal neutrophils, 4 C, filter harvest
Method: (§1) Neutrophils isolated by peritoneal lavage were washed twice with 1 mL of HBSS− (without calcium chloride, magnesium chloride and magnesium sulfate) and centrifuged for ten minutes at 2000 rpms following each wash. PMNs utilized in functional assays were centrifuged at 25° C. while those used in binding assays were centrifuged at 4° C. to prevent internalization. A cold H_2O RBC lysis was then performed with the addition of 9 mL of sterile ice-cold H_2O and 1 mL of phosphate buffered saline (PBS) solution containing 0.1 M phosphate buffer, 0.027 M KCl and 1.37 M NaCl following resuspension of the sample in 1 mL of HBSS−. Centrifugation was subsequently performed for ten minutes at 1600 rpms. White blood cell (WBC) differential stain containing saline, 2% acidic acid and phenol violet dye was used to identify the neutrophil population and trypan blue exclusion was used to determine viability of cells.
(§2) Total binding in the competition assays was assessed in the presence of 1.0 ×10^6 PMNs per sample while non-specific binding was determined in the absence of cells. Each condition was performed in quadruplicate.

[9] = biological target: T1, N-formyl-methionyl-leucyl-phenylalanine …; assay: competition with 6 nM 3H-fMLF on elicited rat neutrophils
Method: as §1, §2

[10] = biological target: T2, N-formyl-methionyl-leucyl-phenylalanine …; assay: competition with 6 nM 3H-fMLF for binding to human neutrophils

MPO release, % Control (1 uM) [6]	MPO release, % Control (10 uM) [6]	IC50 [8]	fold more potent than N-t-BocMLF [9]	Molecule	also measured
134 % control	229 % control			3-but-1-enoxycarbonyl-NleLFK (peptide)	
70.5 % control	71.7 % control			adamantylcarbonyl-NleLFK (peptide)	% Control MPO Release (10 uM capping group + 0.1 uM fMLF) [6]: 129 % control; % Control MPO release (1 uM capping group + 0.1 uM fMLF) [6]: 132 % control
84.1 % control	59.9 % control			fluorenylmethylcarbonyl-NleLFK (peptide)	% Control MPO Release (10 uM capping group + 0.1 uM fMLF) [6]: 109 % control; % Control MPO release (1 uM capping group + 0.1 uM fMLF) [6]: 162 % control
108 % control	91.8 % control			cyclopropylcarbonyl-NleLFK (peptide)	
133 % control	196 % control			trans-cinnamoyl-NleLFK (peptide)	
94.7 % control	68 % control			N-phenyl-N-methylcarbamoyl-NleLFK (peptide)	% Control MPO Release (10 uM capping group + 0.1 uM fMLF) [6]: 121 % control; % Control MPO release (1 uM capping group + 0.1 uM fMLF) [6]: 171 % control
139 % control	120 % control			phenylthioacetyl-NleLFK (peptide)	
95 % control	97.1 % control			2-methoxyacetyl-NleLFK (peptide)	
117 % control	130 % control			2-quinoxazoyl-NleLFK (peptide)	% Control MPO Release (10 uM capping group + 0.1 uM fMLF) [6]: 240 % control; % Control MPO release (1 uM capping group + 0.1 uM fMLF) [6]: 323 % control
118 % control	176 % control			2-acetamido-5-thiazolesulfonyl-NleLFK (peptide)	
		2310 nM	≥ 1.5 fold	Cyclopropanecarbonyl-[Nle]LFSEKG-OH (not fully specified (residue 6); printed as ReO-CyclopropylCONH-nleu-leu-phe-ser-glu-lys(dimethylgly-t-butylgly-cys-gly)-gly-OH; also: ReO (rhenium oxo) complex on the side-chain chelate, Rhenium complex as tested; also called ReORP553 17-02; RP553-17-02) [ReO-CyclopropylCONH-nleu-leu-phe-ser-glu-lys(dimethylgly-t-butylgly-cys-gly)-gly-OH]	
		1220 nM	≥ 1.5 fold	Cyclopropanecarbonyl-[Nle]LFYHK(dimethylgly‑t‑butylgly‑cys‑gly)G-OH (also: ReO (rhenium oxo) complex with Lys6 side-chain chelator, Rhenium complex as tested; also called ReORP553 17-06; RP553-17-06) [ReO-CyclopropylCONH-nleu-leu-phe-tyr-his-lys(dimethylgly-t-butylgly-cys-gly)-gly-OH]	

The remaining lines, values behind:

Molecule	MPO release, % Control (1 uM) [6]	MPO release, % Control (10 uM) [6]	IC50 [8]	fold more potent than N-t-BocMLF [9]	also measured
N-formyl-methionyl-leucyl-phenylalanine (peptide)					Binding Sites/Cell (binding sites/cell) [1]: 40000; Kd [1]: 6.1 nM; IC50 [2]: 5 nM; x-intercept of Scatchard transformation [3]: 34; IC50 [4]: 50 nM; Kd [5]: 6.4 nM; binding sites per cell (binding sites per cell) [5]: 41000; EC50 of myeloperoxidase release from elicited rat PMNs [6]: 110 nM
N,N-diethylcarbamoyl-NleLFK (peptide)	114 % control	110 % control			% Control MPO Release (10 uM capping group + 0.1 uM fMLF) [6]: 250 % control; % Control MPO release (1 uM capping group + 0.1 uM fMLF) [6]: 283 % control
N,N-diphenylcarbamoyl-NleLFK (peptide)	143 % control	125 % control			% Control MPO Release (10 uM capping group + 0.1 uM fMLF) [6]: 186 % control; % Control MPO release (1 uM capping group + 0.1 uM fMLF) [6]: 322 % control
furoyl-NleLFK (peptide)	93 % control	102 % control			
N-tert-butyloxycarbonylated-methionyl-leucyl-phenylalanine (peptide)					IC50 [4]: 9300 nM
For-MLFK [N-formyl-methionyl-leucyl-phenylalanyl-lysine]					EC50 of myeloperoxidase release from elicited rat PMNs [7]: 140 nM
Cyclopropanecarbonyl-[Nle]LFWHK(dimethylgly‑t‑butylgly‑cys‑gly)G-OH (also: ReO (rhenium oxo) complex with Lys6 side-chain chelator, Rhenium complex as tested; also called ReORP553 17-04; RP553-17-04) [ReO-CyclopropylCONH-nleu-leu-phe-trp-his-lys(dimethylgly-t-butylgly-cys-gly)-gly-OH]			1770 nM	≥ 1.5 fold	
Cyclopropanecarbonyl-[Nle]LFYKK(dimethylgly‑t‑butylgly‑cys‑gly)G-OH (also: ReO (rhenium oxo) complex with Lys6 side-chain chelator, Rhenium complex as tested; also called ReORP553 17-09; RP553-17-09) [ReO-CyclopropylCONH-nleu-leu-phe-tyr-lys-lys(dimethylgly-t-butylgly-cys-gly)-gly-OH]			5930 nM	≥ 1.5 fold	
Cyclopropanecarbonyl-[Nle]LFWKK(dimethylgly‑t‑butylgly‑cys‑gly)G-OH (also: ReO (rhenium oxo) complex with Lys6 side-chain chelator, Rhenium complex as tested; also called ReORP553 17-07; RP553-17-07) [ReO-CyclopropylCONH-nleu-leu-phe-trp-lys-lys(dimethylgly-t-butylgly-cys-gly)-gly-OH]			760 nM	≥ 1.5 fold	
Cyclopropanecarbonyl-[Nle]LFSHK(dimethylgly‑t‑butylgly‑cys‑gly)G-OH (also: ReO (rhenium oxo) complex with Lys6 side-chain chelator, Rhenium complex as tested; also called ReORP553 17-05; RP553-17-05) [ReO-CyclopropylCONH-nleu-leu-phe-ser-his-lys(dimethylgly-t-butylgly-cys-gly)-gly-OH]			1010 nM	≥ 1.5 fold	
Cyclopropanecarbonyl-[Nle]LFWEK(dimethylgly‑t‑butylgly‑cys‑gly)G-OH (also: ReO (rhenium oxo) complex with Lys6 side-chain chelator, Rhenium complex as tested; also called ReORP553 17-01; RP553-17-01) [ReO-CyclopropylCONH-nleu-leu-phe-trp-glu-lys(dimethylgly-t-butylgly-cys-gly)-gly-OH]			730 nM	≥ 1.5 fold	fold greater binding affinity than N-t-BocMLF [9]: ~12 fold; fold less binding affinity than fMLF [9]: ~15 fold; IC50 [10]: 140 nM
Cyclopropanecarbonyl-[Nle]LFSKK(dimethylgly‑t‑butylgly‑cys‑gly)G-OH (also: ReO (rhenium oxo) complex with Lys6 side-chain chelator, Rhenium complex as tested; also called ReORP553 17-08; RP553-17-08) [ReO-CyclopropylCONH-nleu-leu-phe-ser-lys-lys(dimethylgly-t-butylgly-cys-gly)-gly-OH]			4950 nM	≥ 1.5 fold	

From patent US6872536 (BRACCO IMAGING S P A, dated 2005)
